# According to patent US20260069707A1, “COMBINATION THERAPY WITH ANTIBODY-DRUG CONJUGATES AND HYALURONIDASES” (HALOZYME, INC., priority 2024, published 2026):
# Where “and” joins values, the source holds several entries; their conditions need not be identical. Equal entries are not always repeated.
# Columns and labels:
# [1] = Linker stability during skin tissue sample preparation (Trodelvy spiked into skin tissue); settings: 100 μg/mL Trodelvy spiked into skin tissue, protein precipitation, LC-MS/MS
# Method: Linker stability during skin tissue sample preparation was assessed by spiking 100 μg/mL Trodelvy into skin tissue, followed by protein precipitation and subsequent sample preparation for LC-MS/MS analysis. Free SN-38 was detected at approximately 10% of the total, which may be attributable to residual impurities in Trodelvy and/or linker hydrolysis occurring during the skin tissue processing steps. FIG. 62 provides the ratio of total ADC to total antibody (TADC/TAB) in skin tissue over time. Table 69 depicts the ratio of total ADC to total antibody in skin tissue homogenates, providing an indication of the extent of intact ADC that is remaining in the SC space over time.
# [2] = Post-injection bleb volume, area, height - 3D imaging; format: in vivo, Yucatan miniature pig (Sus scrofa domestica); settings: minipig, 10 mL SC by HVAI, T0; n=3 alone, n=2 with rHuPH20
# Method: 3D imaging was applied as a longitudinal methodology to measure post-injection swelling. By obtaining high definition pre- and post-injection 3D images the distances between two registered surfaces can be determined. The camera captures images using a factory calibrated bifocal imaging system to measure distance between surfaces. Surface registration was performed using a multipoint method that utilized common landmarks between the pre-injection image and the post-injection image. Using the proprietary software, the volume, area and height of the post-injection swelling was calculated for each injection (Canfield Biosciences, Inc.).
# Assessment of Post-Injection Bleb Shape, Volume, Area and Height (3D Imaging). Pre- and post-injection photographs were taken using a 3D imaging system (Canfield Scientific). This technology permits point-to-point alignment of these two images through multipoint surface registration. The distance between any two points is then represented using a colorimetric surface contour map. […] The color intensity is proportional to the amount of distance measured between images with darker blue color indicating greater distance from the pre-injection image. Out of range measurements (distances greater than 6 mm) are depicted in white. Bleb measurements of volume and height include regions out of range.
# These registered pre-/post-injection images were then used to calculate the bleb volume, height, circumference, length, and width for each bleb using proprietary software (Vectra H1 software; Canfield Sciences).
# [3] = Serum PK of Enhertu: total antibody, total ADC, free payload (HPLC-MS/MS), IV vs SC vs SC + rHuPH20; settings: for TADC/TAB Ratio: listed as ADC
# Method: Serum concentrations of total ADC, total antibody and Free Payload (unconjugated deruxtecan) were determined in three separate assays using HPLC with MS/MS detection.
# A 20.0-μL sample aliquot was diluted 10-fold. A portion of the diluted sample was taken and processed using an immunoaffinity approach. […] The bound proteins were subjected to “on-bead” proteolysis with trypsin. After trypsin digestion, the samples were split into two portions. One portion used the characteristic peptide fragments produced from the trypsin digestion to quantitate total antibody. The second portion was further digested using papain to hydrolyze Dxd from the antibody to quantitate total ADC.
# VVSV was used for the quantitation of total antibody concentrations, DSTY was used for the quantitation of intact antibody (troubleshooting purposes only), and Dxd was used for quantitating Total ADC concentrations.
# A nominal free Dxd, concentration range of […] was chosen to quantitate samples. This assay requires a 50.0 μL porcine serum and skin aliquot. Samples were kept frozen at −80° C. prior to analysis.
# A matrix aliquot is fortified with internal standard. Analytes are isolated through acidified protein precipitation. The eluate is evaporated under a nitrogen stream, and the remaining residue is reconstituted. Final extracts are analyzed via HPLC MS/MS detection using positive ion electrospray.
substance,measurement,setting,value
Sacituzumab govitecan [Trodelvy],"Free SN-38 detected, % of the total",[1],approximately 10%
same,"Bleb Area (cm^2), 3D imaging (Mean ± SEM)",[2],30.5 ± 2.9 cm^2
same,"Bleb Height (mm), 3D imaging (Mean ± SEM)",[2],7.6 ± 1.2 mm
same,"Bleb Volume (mL), 3D imaging (Mean ± SEM)",[2],8.1 ± 0.7 mL
same,"Relative difference in serum AUC0-7, Free Payload, vs. ADC-IV",[3]; SC vs. ADC-IV,83%
same,"Relative difference in serum AUC0-7, TAB, vs. ADC-IV",[3]; SC vs. ADC-IV,59%
same,"Relative difference in serum AUC0-7, TADC, vs. ADC-IV",[3]; SC vs. ADC-IV,60%
same,"Relative difference in serum Cmax, Free Payload, vs. ADC-IV",[3]; SC vs. ADC-IV,70%
same,"Relative difference in serum Cmax, TAB, vs. ADC-IV",[3]; SC vs. ADC-IV,28%
same,"Relative difference in serum Cmax, TADC, vs. ADC-IV",[3]; SC vs. ADC-IV,29%
same,"TADC/TAB ratio - serum, mean","[3]; SC, 6 h",1.054
same,"TADC/TAB ratio - serum, mean","[3]; SC, 24 h",1.195
same,"TADC/TAB ratio - serum, mean","[3]; SC, 48 h",0.796
same,"TADC/TAB ratio - serum, mean","[3]; SC, 72 h",0.806
same,"TADC/TAB ratio - serum, mean","[3]; SC, 96 h",0.765
same,"TADC/TAB ratio - serum, mean","[3]; SC, 168 h",1.028
same,"SC/IV, mean AUC0-7, ADC",[3]; minipig serum,60%
same,"SC/IV, mean AUC0-7, Ab",[3]; minipig serum,59%
same,"SC/IV, mean AUC0-7, Payload",[3]; minipig serum,83%
same,"SC/IV, mean Cmax, ADC",[3]; minipig serum,29%
same,"SC/IV, mean Cmax, Ab",[3]; minipig serum,28%
same,"SC/IV, mean Cmax, Payload",[3]; minipig serum,70%
same,"ADC/Ab ratio, mean AUC0-7","[3]; minipig serum, IV",86%
same,"ADC/Ab ratio, mean Cmax","[3]; minipig serum, IV",93%
same,"ADC/Payload ratio, mean AUC0-7","[3]; minipig serum, IV",116066%
same,"ADC/Payload ratio, mean Cmax","[3]; minipig serum, IV",201037%
same,"ADC/Ab ratio, mean AUC0-7","[3]; minipig serum, SC",87%
same,"ADC/Ab ratio, mean Cmax","[3]; minipig serum, SC",96%
same,"ADC/Ab ratio, mean Tmax","[3]; minipig serum, SC",60%
same,"ADC/Payload ratio, mean AUC0-7","[3]; minipig serum, SC",83512%
same,"ADC/Payload ratio, mean Cmax","[3]; minipig serum, SC",83474%
same,"ADC/Payload ratio, mean Tmax","[3]; minipig serum, SC",57%
same,"AUC0-7, free payload in serum","[3]; pig, in vivo, iv",0.04 µg·days/mL
same,"AUC0-7, total ADC in serum","[3]; pig, in vivo, iv",47.73 µg·days/mL
same,"AUC0-7, total antibody in serum","[3]; pig, in vivo, iv",55.38 µg·days/mL
same,AUC0-7 free payload,"[3]; pig, in vivo, iv",0.04 µg·days/mL
same,AUC0-7 total ADC (TADC),"[3]; pig, in vivo, iv",47.73 µg·days/mL
same,AUC0-7 total antibody (TAB),"[3]; pig, in vivo, iv",55.38 µg·days/mL
same,Cmax free payload,"[3]; pig, in vivo, iv",10 ng/mL
same,Cmax total ADC (TADC),"[3]; pig, in vivo, iv",25120 ng/mL
same,Cmax total antibody (TAB),"[3]; pig, in vivo, iv",27000 ng/mL
same,"Cmax, free payload in serum","[3]; pig, in vivo, iv",10 ng/mL
same,"Cmax, total ADC in serum","[3]; pig, in vivo, iv",25120 ng/mL
same,"Cmax, total antibody in serum","[3]; pig, in vivo, iv",27000 ng/mL
same,Tmax free payload,"[3]; pig, in vivo, iv",0 h
same,Tmax total ADC (TADC),"[3]; pig, in vivo, iv",0 h
same,Tmax total antibody (TAB),"[3]; pig, in vivo, iv",0 h
same,"Tmax, free payload in serum","[3]; pig, in vivo, iv",0 h
same,"Tmax, total ADC in serum","[3]; pig, in vivo, iv",0 h
same,"Tmax, total antibody in serum","[3]; pig, in vivo, iv",0 h
same,Total ADC concentration in the serum of minipigs,"[3]; pig, in vivo, iv, 0 h",25.12 µg/mL
same,Total ADC Result,"[3]; pig, in vivo, iv, 5 mL",<0.100 µg/mL
same,Total ADC concentration in the serum of minipigs,"[3]; pig, in vivo, iv, 5 mL, 6 h",21.40 µg/mL
same,Total ADC concentration in the serum of minipigs,"[3]; pig, in vivo, iv, 5 mL, 24 h",12.80 µg/mL
same,Total ADC Result,"[3]; pig, in vivo, iv, 6 h",21.4 µg/mL
same,Total ADC Result,"[3]; pig, in vivo, iv, 24 h",12.8 µg/mL
same,Total ADC Result,"[3]; pig, in vivo, iv, 48 h",7.28 µg/mL
same,Total ADC concentration in the serum of minipigs,"[3]; pig, in vivo, iv, 48 h",7.28 µg/mL
same,Total ADC Result,"[3]; pig, in vivo, iv, 72 h",5.04 µg/mL
same,Total ADC concentration in the serum of minipigs,"[3]; pig, in vivo, iv, 72 h",5.04 µg/mL
same,Total ADC Result,"[3]; pig, in vivo, iv, 96 h",3.91 µg/mL
same,Total ADC concentration in the serum of minipigs,"[3]; pig, in vivo, iv, 96 h",3.91 µg/mL
same,Total ADC Result,"[3]; pig, in vivo, iv, 168 h",1.70 µg/mL
same,Total ADC concentration in the serum of minipigs,"[3]; pig, in vivo, iv, 168 h",1.70 µg/mL
same,Tmax total ADC (TADC),"[3]; pig, in vivo, sc",24 h
same,"Tmax, total ADC in serum","[3]; pig, in vivo, sc",24 h
same,Total ADC Result,"[3]; pig, in vivo, sc, 0 h",<0.100 µg/mL
same,Total ADC concentration in the serum of minipigs,"[3]; pig, in vivo, sc, 5 mL, 6 h",4.08 µg/mL
same,Total ADC concentration in the serum of minipigs,"[3]; pig, in vivo, sc, 5 mL, 24 h",7.27 µg/mL
same,Total ADC concentration in the serum of minipigs,"[3]; pig, in vivo, sc, 48 h",5.17 µg/mL
same,Total ADC concentration in the serum of minipigs,"[3]; pig, in vivo, sc, 72 h",4.35 µg/mL
same,Total ADC concentration in the serum of minipigs,"[3]; pig, in vivo, sc, 96 h",3.74 µg/mL
same,Total ADC concentration in the serum of minipigs,"[3]; pig, in vivo, sc, 168 h",2.04 µg/mL
same,"TADC/Free Payload, AUC0-7","[3]; serum, IV",116066%
same,"TADC/Free Payload, Cmax","[3]; serum, IV",201037%
same,"TADC/TAB, AUC0-7","[3]; serum, IV",86%
same,"TADC/TAB, Cmax","[3]; serum, IV",93%
same,TADC/TAB Ratio,"[3]; serum, IV, 6 h, individual animal",0.92 and 0.918
same,TADC/TAB Ratio,"[3]; serum, IV, 24 h, individual animal",0.87 and 0.871
same,TADC/TAB Ratio,"[3]; serum, IV, 48 h, individual animal",0.80 and 0.804
same,TADC/TAB Ratio,"[3]; serum, IV, 72 h, individual animal",0.88 and 0.877
same,TADC/TAB Ratio,"[3]; serum, IV, 96 h, individual animal",0.77 and 0.773
same,TADC/TAB Ratio,"[3]; serum, IV, 168 h, individual animal",0.99 and 0.994
same,"TADC/Free Payload, AUC0-7","[3]; serum, SC",83512%
same,"TADC/Free Payload, Cmax","[3]; serum, SC",83474%
same,"TADC/Free Payload, Tmax","[3]; serum, SC",57%
same,"TADC/TAB, AUC0-7","[3]; serum, SC",87%
same,"TADC/TAB, Cmax","[3]; serum, SC",96%
same,"TADC/TAB, Tmax","[3]; serum, SC",60%
same,TADC/TAB Ratio,"[3]; serum, SC, 6 h, individual animals",1.01 and 1.13 and 1.03 and 1.006 and 1.129 and 1.026
same,TADC/TAB Ratio,"[3]; serum, SC, 24 h, individual animals",1.55 and 0.84 and 1.19 and 1.546 and 0.845 and 1.194
same,TADC/TAB Ratio,"[3]; serum, SC, 48 h, individual animals",0.81 and 0.82 and 0.76 and 0.808 and 0.823 and 0.756
same,TADC/TAB Ratio,"[3]; serum, SC, 72 h, individual animals",0.76 and 0.72 and 0.93 and 0.763 and 0.721 and 0.934
same,TADC/TAB Ratio,"[3]; serum, SC, 96 h, individual animals",0.74 and 0.73 and 0.82 and 0.744 and 0.731 and 0.819
same,TADC/TAB Ratio,"[3]; serum, SC, 168 h, individual animals",1.20 and 0.89 and 0.99 and 1.204 and 0.891 and 0.989
